According to the RNAGym collection of RNA variant scans (doi:10.7554/elife.90254):

B1: OR4K15 (parent)
chain: GUUAACGGUCAUAGGCCAUGGAAACUAGGAGCACCAUUUCGCUGCCAGUGAAGAAAUGAACAAAGAAAAUCUGGGCCAGGCAGGCAUCAAAAGAAAUAGUCUUGCGCUCAACCAGAAAGUCUGUAAUCAUUUUAAGGGUA

Variants of: B1
Assay: self-cleavage, relative activity (ratio to wild type); higher = more cleavage; in vitro, sequencing; the parent is a self-cleaving ribozyme

Row | Variant | self-cleavage
1 | GUUAACGGUCAUAGGCCAUGGAAACUAGGAGCACCAUUUCGCUGCCAGUGAAGAAAUGAACAAAGGAAAUCUGGGCCAGGCAGGCAUCAAAAGAAAUAGUCUUGCGCUCAACCAGAAAGUCUGUAAUCAUUUUAAGGAUA [A66G G138A] | 1.26
2 | GUUAACGGUCAUAGGCCAUGGAAACUAGGAGCACCAUUUCGCUGCCAGUGAAGAAAUGAACAAAGGAAAUCUGGGCCAGGCAGGCAUCAAAAGAAAUAGUCUUGCGCUCAACCAGAAAGUCUGUAAUCAUUUUCAGGGUA [A66G A134C] | 1.71
3 | GUUAACGGUCAUAGGCCAUGGAAACUAGGAGCACCAUUUCGCUGCCAGUGAAGAAAUGAACAAAGGAAAUCUGGGCCAGGCAGGCAUCAAAAGAAAUAGUCUUGCGCUCAACCAGAAAGUCUGUAAUCAUUUUGAGGGUA [A66G A134G] | 1.66
4 | GUUAACGGUCAUAGGCCAUGGAAACUAGGAGCACCAUUUCGCUGCCAGUGAAGAAAUGAACAAAGGAAACCUGGGCCAGGCAGGCAUCAAAAGAAAUAGUCUUGCGCUCAACCAGAAAGUCUGUAAUCAUUUUAAGGGUA [A66G U70C] | 0.75
5 | GUUAACGGUCAUAGGCCAUGGAAACUAGGAGCACCAUUUCGCUGCCAGUGAAGAAAUGAACAAAGGAAAUCUGGGCCAGGCAGGCAUCAAAAGAAAUAGUCUUGCGCUCAACCAGAAAGUCUGUAAUCAAUUUAAGGGUA [A66G U130A] | 0.6
6 | GUUAACGGUCAUAGGCCAUGGAAACUAGGAGCACCAUUUCGCUGCCAGUGAAGAAAUGAACAAAGGAAAUCUGGGCCAGGCAGGCAUCAAAAGAAAUAGUCUUGCGCUCAACCAGAAAGCCUGUAAUCAUUUUAAGGGUA [A66G U120C] | 1.71
7 | GUUAACGGUCAUAGGCCAUGGAAACUAGGAGCACCAUUUCGCUGCCAGUGAAGAAAUGAACAAAGGAAAUCUGGGCCAGGCAGGCAUCAAAAGAAAUAGUCUUGCGCUCAACCUGAAAGUCUGUAAUCAUUUUAAGGGUA [A66G A114U] | 0.08
8 | GUUAACGGUCAUAGGCCAUGGAAACUAGGAGCACCAUUUCGCUGCCAGUGAAGAAAUGAACAAAGGAAAUCUGGGCCAGGCAGGCAUCAAAAGAAAUAGUCUUGCGCUCAACCAGAAAGUCUGUAAUCAUUUCAAGGGUA [A66G U133C] | 1.82
9 | GUUAACGGUCAUAGGCCAUGGAAACUAGGAGCACCAUUUCGCUGCCAGUGAAGAAAUGAACAAAGGAAAUCUGGGCCAGGCAGGCAUCAAAAGAAAUAGUCUUGCGCUCAACCAGAAAGUCUGUAAUCAUUUUAAGAGUA [A66G G137A] | 2.07
10 | GUUAACGGUCAUAGGCCAUGGAAACUAGGAGCACCAUUUCGCUGCCAGUGAAGAAAUGAACAAAGGAAAUCUGGGCCAGGCAGGCAUCAAAAGAAAUAGUCUUGAGCUCAACCAGAAAGUCUGUAAUCAUUUUAAGGGUA [A66G C105A] | 0.05
11 | GUUAACGGUCAUAGGCCAUGGAAACUAGGAGCACCAUUUCGCUGCCAGUGAAGAAAUGAACAAAGGAAAUCUGGGCCAGGGAGGCAUCAAAAGAAAUAGUCUUGCGCUCAACCAGAAAGUCUGUAAUCAUUUUAAGGGUA [A66G C81G] | 0.18
12 | GUUAACGGUCAUAGGCCAUGGAAACUAGGAGCACCAUUUCGCUGCCAGUGAAGAAAUGAACAAAGGAAAUCUGGGCCAGGCAGGCAUCAAAAGAAAUAGUCUUGCGCUCUACCAGAAAGUCUGUAAUCAUUUUAAGGGUA [A66G A110U] | 0.78
13 | GUUAACGGUCAUAGGCCAUGGAAACUAGGAGCACCAUUUCGCUGCCAGUGAAGAAAUGAACAAAGGAAAUCUAGGCCAGGCAGGCAUCAAAAGAAAUAGUCUUGCGCUCAACCAGAAAGUCUGUAAUCAUUUUAAGGGUA [A66G G73A] | 0.15
14 | GUUAACGGUCAUAGGCCAUGGAAACUAGGAGCACCAUUUCGCUGCCAGUGAAGAAAUGAACAAAGGAAAUCUGGGCCAGGCACGCAUCAAAAGAAAUAGUCUUGCGCUCAACCAGAAAGUCUGUAAUCAUUUUAAGGGUA [A66G G83C] | 0.2
15 | GUUAACGGUCAUAGGCCAUGGAAACUAGGAGCACCAUUUCGCUGCCAGUGAAGAAAUGAACAAAGGAAAUCUGGGCCAGGCAUGCAUCAAAAGAAAUAGUCUUGCGCUCAACCAGAAAGUCUGUAAUCAUUUUAAGGGUA [A66G G83U] | 0.61
16 | GUUAACGGUCAUAGGCCAUGGAAACUAGGAGCACCAUUUCGCUGCCAGUGAAGAAAUGAACAAAGGAAAUCUGGGCCAGGCAGGCAACAAAAGAAAUAGUCUUGCGCUCAACCAGAAAGUCUGUAAUCAUUUUAAGGGUA [A66G U87A] | 1.15
17 | GUUAACGGUCAUAGGCCAUGGAAACUAGGAGCACCAUUUCGCUGCCAGUGAAGAAAUGAACAAAGGAAAUCUGGGCCAGGCAGGCACCAAAAGAAAUAGUCUUGCGCUCAACCAGAAAGUCUGUAAUCAUUUUAAGGGUA [A66G U87C] | 0.77
18 | GUUAACGGUCAUAGGCCAUGGAAACUAGGAGCACCAUUUCGCUGCCAGUGAAGAAAUGAACAAAGGAAAUCUGGGCCAGGCAGGCAUCAAAAGAAAUAGUCUUGCGCUCAACCAGAAAGUCUGUAAUCAUAUUAAGGGUA [A66G U131A] | 1.7
19 | GUUAACGGUCAUAGGCCAUGGAAACUAGGAGCACCAUUUCGCUGCCAGUGAAGAAAUGAACAAAGUAAAUCUGGGCCGGGCAGGCAUCAAAAGAAAUAGUCUUGCGCUCAACCAGAAAGUCUGUAAUCAUUUUAAGGGUA [A66U A78G] | 0.3
20 | GUUAACGGUCAUAGGCCAUGGAAACUAGGAGCACCAUUUCGCUGCCAGUGAAGAAAUGAACAAAGGAAAUCUGGGCCAGGCAGGCAUCAAAAGAAAUAGUCAUGCGCUCAACCAGAAAGUCUGUAAUCAUUUUAAGGGUA [A66G U102A] | 0.89
21 | GUUAACGGUCAUAGGCCAUGGAAACUAGGAGCACCAUUUCGCUGCCAGUGAAGAAAUGAACAAAGGAAAUCUGGGCCAGGCAGGCAUCAAAAGAAAUAGACUUGCGCUCAACCAGAAAGUCUGUAAUCAUUUUAAGGGUA [A66G U100A] | 0.58

Row | Variant | self-cleavage
22 | GUUAACGGUCAUAGGCCAUGGAAACUAGGAGCACCAUUUCGCUGCCAGUGAAGAAAUGAACAAAGGAAAUCUGGGCCAGGCAGGCAUCAAAAGAAAUAGCCUUGCGCUCAACCAGAAAGUCUGUAAUCAUUUUAAGGGUA [A66G U100C] | 2.05
23 | GUUAACGGUCAUAGGCCAUGGAAACUAGGAGCACCAUUUCGCUGCCAGUGAAGAAAUGAACAAAGGAAAUCUGGGCCAGGCAGGCAUCAAAAGAAAUAGUCUUGCGCUCAACCAGAAAGUCUGUAAUCUUUUUAAGGGUA [A66G A129U] | 1.47
24 | GUUAACGGUCAUAGGCCAUGGAAACUAGGAGCACCAUUUCGCUGCCAGUGAAGAAAUGAACAAAGUAAAUCUGGGCCAGGCGGGCAUCAAAAGAAAUAGUCUUGCGCUCAACCAGAAAGUCUGUAAUCAUUUUAAGGGUA [A66U A82G] | 0.92
25 | GUUAACGGUCAUAGGCCAUGGAAACUAGGAGCACCAUUUCGCUGCCAGUGAAGAAAUGAACAAAGGAAAUCUGGGCCAGGCAGGCAUCAAAAGAAAAAGUCUUGCGCUCAACCAGAAAGUCUGUAAUCAUUUUAAGGGUA [A66G U97A] | 2.11
26 | GUUAACGGUCAUAGGCCAUGGAAACUAGGAGCACCAUUUCGCUGCCAGUGAAGAAAUGAACAAAGGAAAUCUGGGCCAGGCAGGCAUCAAAAGAAACAGUCUUGCGCUCAACCAGAAAGUCUGUAAUCAUUUUAAGGGUA [A66G U97C] | 1.98
27 | GUUAACGGUCAUAGGCCAUGGAAACUAGGAGCACCAUUUCGCUGCCAGUGAAGAAAUGAACAAAGGAAAUCUGGGCCAGGCAGGCAUCAAAAGAAAUAGUCUUGCGCUCAACCAGAAAGUCUGUAAUCAUUUUAUGGGUA [A66G A135U] | 1.08
28 | GUUAACGGUCAUAGGCCAUGGAAACUAGGAGCACCAUUUCGCUGCCAGUGAAGAAAUGAACAAAGGAAAUCUGGGCCAGGCAGGCAUCAAAAGAAAUAGUCUUGCGCUCAACCAGUAAGUCUGUAAUCAUUUUAAGGGUA [A66G A116U] | 0.7
29 | GUUAACGGUCAUAGGCCAUGGAAACUAGGAGCACCAUUUCGCUGCCAGUGAAGAAAUGAACAAAGGAAAUCUGGGCCAGGCAGGCAUCAAAAGAAAUAGUCUUGCGCUCAGCCAGAAAGUCUGUAAUCAUUUUAAGGGUA [A66G A111G] | 0.02
30 | GUUAACGGUCAUAGGCCAUGGAAACUAGGAGCACCAUUUCGCUGCCAGUGAAGAAAUGAACAAAGGAAAUCUGGGCCAGGCAGGCAUCAAAAGAAAUAGUCUUGCGCUCAACCAGAAAGUCUGUAGUCAUUUUAAGGGUA [A66G A126G] | 1.07
31 | GUUAACGGUCAUAGGCCAUGGAAACUAGGAGCACCAUUUCGCUGCCAGUGAAGAAAUGAACAAAGUAAAUCUGGGCCAGGCAGGCAUCAAAAGAAAUAGUCUUGCGCUCAACCAGAAAGUCUGUAAUCAUUUUAAGGGUA [A66U] | 1.36
32 | GUUAACGGUCAUAGGCCAUGGAAACUAGGAGCACCAUUUCGCUGCCAGUGAAGAAAUGAACAAAGGAAAUCUGGGCCAGGCAGGCAUCAAAAGAUAUAGUCUUGCGCUCAACCAGAAAGUCUGUAAUCAUUUUAAGGGUA [A66G A95U] | 0.2
33 | GUUAACGGUCAUAGGCCAUGGAAACUAGGAGCACCAUUUCGCUGCCAGUGAAGAAAUGAACAAAGGAAAUCUGGGCCAGGCAGGCAUCAAAAGAGAUAGUCUUGCGCUCAACCAGAAAGUCUGUAAUCAUUUUAAGGGUA [A66G A95G] | 1.54
34 | GUUAACGGUCAUAGGCCAUGGAAACUAGGAGCACCAUUUCGCUGCCAGUGAAGAAAUGAACAAAGGAAAUCUGGGCCAGGCAGGCAUCAAAAGAAAUAGUCUUCCGCUCAACCAGAAAGUCUGUAAUCAUUUUAAGGGUA [A66G G104C] | 0.01
35 | GUUAACGGUCAUAGGCCAUGGAAACUAGGAGCACCAUUUCGCUGCCAGUGAAGAAAUGAACAAAGGAAAUCUGGGCCAGGCAGGCAUCAAAAGAAAUAGUCUUGCGCUCAACCAGAAAGUCUGUAAUCAUUCUAAGGGUA [A66G U132C] | 0.6
36 | GUUAACGGUCAUAGGCCAUGGAAACUAGGAGCACCAUUUCGCUGCCAGUGAAGAAAUGAACAAAGGAAAUCUGGGCCAGGCAGGCAUCAAAAGAAAUAGUCUUGCGCUCAACCAGAAAGUCUGUAAACAUUUUAAGGGUA [A66G U127A] | 2.35
37 | GUUAACGGUCAUAGGCCAUGGAAACUAGGAGCACCAUUUCGCUGCCAGUGAAGAAAUGAACAAAGGAAAUCCGGGCCAGGCAGGCAUCAAAAGAAAUAGUCUUGCGCUCAACCAGAAAGUCUGUAAUCAUUUUAAGGGUA [A66G U72C] | 0.09
38 | GUUAACGGUCAUAGGCCAUGGAAACUAGGAGCACCAUUUCGCUGCCAGUGAAGAAAUGAACAAAGGAAAUCUGGGCCAGGCAGGCAUCAAAAGAAAUAGUCUUGCGCUCAACCAGAAAGUCUGUGAUCAUUUUAAGGGUA [A66G A125G] | 0.25
39 | GUUAACGGUCAUAGGCCAUGGAAACUAGGAGCACCAUUUCGCUGCCAGUGAAGAAAUGAACAAAGUGAAUCUGGGCCAGGCAGGCAUCAAAAGAAAUAGUCUUGCGCUCAACCAGAAAGUCUGUAAUCAUUUUAAGGGUA [A66U A67G] | 0.98
40 | GUUAACGGUCAUAGGCCAUGGAAACUAGGAGCACCAUUUCGCUGCCAGUGAAGAAAUGAACAAAGGAAAUCUGGGACAGGCAGGCAUCAAAAGAAAUAGUCUUGCGCUCAACCAGAAAGUCUGUAAUCAUUUUAAGGGUA [A66G C76A] | 0.23
41 | GUUAACGGUCAUAGGCCAUGGAAACUAGGAGCACCAUUUCGCUGCCAGUGAAGAAAUGAACAAAGGAAAUCUGGGCCAGGCAGGCAUCAAAAGAAAUGGUCUUGCGCUCAACCAGAAAGUCUGUAAUCAUUUUAAGGGUA [A66G A98G] | 0.38
